Measurements reported in US12630600B2 (MEDIMMUNE LIMITED, priority 2022, dated 2026).
Starred links: 1 amine or outer side, 2 acyl side, 3 side chain; linkers in the order of their positions; H or OH if unused. Non-standard residues stand in square brackets, D forms with d. Groups on a side chain read outwards from the residue. Primed or numbered codes have the meaning given here. No end group written: not given here. *: point of attachment. C20 diacid = O=C(O)CCCCCCCCCCCCCCCCCCC(=O)*; C18 diacid = O=C(O)CCCCCCCCCCCCCCCCC(=O)*; γGlu = O=C(O)[C@H](CCC(=O)[*:2])N[*:1]; Stearoyl = CCCCCCCCCCCCCCCCCC(=O)*; Palmitoyl = CCCCCCCCCCCCCCCC(=O)*; αMeF = C[C@](N)(Cc1ccccc1)C(=O)O; Myristoyl = CCCCCCCCCCCCCC(=O)*; (PEG)2 = polyethylene glycol 2; PEG2′ = polyethylene glycol 2; αMeS = C[C@](N)(CO)C(=O)O; AEEA = NCCOCCOCC(=O)O; Aib = CC(C)(N)C(=O)O

Key:
human GLP-1 receptor = human GLP-1 receptor (human, UniProt P43220); experiment: cell-based or functional assay
human glucagon receptor = human glucagon receptor (human, UniProt P47871); experiment: cell-based or functional assay

Row | cAMP production, hGLP-1R EC50 (pM) (human GLP-1 receptor) | cAMP production, hGluc-R EC50 (pM) (human glucagon receptor) | Binder
1 | 0.627 | 48.5 | HSQGS[αMeF]TSDVSK(Ac)[Aib]LDSK([(PEG)2-(PEG)2-γGlu-γGlu-Stearoyl])AAQD[αMeF]VQ[Aib]IAN-NH2 [Peptide 110]
2 | 3200 | > 27100 | HSQGS[αMeF]TSDVSK[Aib]LDSK([AEEA-AEEA-γGlu-C18 diacid])AAQD[αMeF]VQ[Aib]IAN-NH2 (N-terminus assumed; SMILES CC[C@H](C)[C@H](NC(=O)C(C)(C)NC(=O)[C@H](CCC(N)=O)NC(=O)[C@@H](NC(=O)[C@](C)(Cc1ccccc1)NC(=O)[C@H](CC(=O)O)NC(=O)[C@H](CCC(N)=O)NC(=O)[C@H](C)NC(=O)[C@H](C)NC(=O)[C@H](CCCCNC(=O)COCCOCCNC(=O)COCCOCCNC(=O)CC[C@H](NC(=O)CCCCCCCCCCCCCCCCC(=O)O)C(=O)O)NC(=O)[C@H](CO)NC(=O)[C@H](CC(=O)O)NC(=O)[C@H](CC(C)C)NC(=O)C(C)(C)NC(=O)[C@H](CCCCN)NC(=O)[C@H](CO)NC(=O)[C@@H](NC(=O)[C@H](CC(=O)O)NC(=O)[C@H](CO)NC(=O)[C@@H](NC(=O)[C@](C)(Cc1ccccc1)NC(=O)[C@H](CO)NC(=O)CNC(=O)[C@H](CCC(N)=O)NC(=O)[C@H](CO)NC(=O)[C@@H](N)Cc1c[nH]cn1)[C@@H](C)O)C(C)C)C(C)C)C(=O)N[C@@H](C)C(=O)N[C@@H](CC(N)=O)C(N)=O) [Peptide 1]
3 | 1.42 | 0.857 | HSQGS[αMeF]TSDVSKILDSK([(PEG)2-(PEG)2-γGlu-Myristoyl])AAQD[αMeF]VQ[Aib]IINT-NH2 [Peptide 122]
4 | 1.07 | 1.2 | HSQGS[αMeF]TSDVSKILDSK([(PEG)2-(PEG)2-γGlu-γGlu-Palmitoyl])AAQD[αMeF]VQ[Aib]IINT-NH2 [Peptide 118]
5 | 0.462 | 4.1 | H[Aib]QGS[αMeF]TSDVSKILDSK([(PEG)2-(PEG)2-γGlu-Myristoyl])AAQD[αMeF]VQ[Aib]IINT-NH2 [Peptide 129]
6 | 0.998 | 12.6 | H[Aib]QGS[αMeF]TSDVSKILDSK([(PEG)2-(PEG)2-γGlu-Stearoyl])AAQD[αMeF]VQ[Aib]IINT-NH2 [Peptide 127]
7 | 15.9 | 44 | H[Aib]HGS[αMeF]TSDVSK[αMeF]LDSK([AEEA-AEEA-γGlu-C18 diacid])AARD[αMeF]VQ[Aib]IANT-NH2 (N-terminus assumed; SMILES CC[C@H](C)[C@H](NC(=O)C(C)(C)NC(=O)[C@H](CCC(N)=O)NC(=O)[C@@H](NC(=O)[C@](C)(Cc1ccccc1)NC(=O)[C@H](CC(=O)O)NC(=O)[C@H](CCCNC(=N)N)NC(=O)[C@H](C)NC(=O)[C@H](C)NC(=O)[C@H](CCCCNC(=O)COCCOCCNC(=O)COCCOCCNC(=O)CC[C@H](NC(=O)CCCCCCCCCCCCCCCCC(=O)O)C(=O)O)NC(=O)[C@H](CO)NC(=O)[C@H](CC(=O)O)NC(=O)[C@H](CC(C)C)NC(=O)[C@](C)(Cc1ccccc1)NC(=O)[C@H](CCCCN)NC(=O)[C@H](CO)NC(=O)[C@@H](NC(=O)[C@H](CC(=O)O)NC(=O)[C@H](CO)NC(=O)[C@@H](NC(=O)[C@](C)(Cc1ccccc1)NC(=O)[C@H](CO)NC(=O)CNC(=O)[C@H](Cc1c[nH]cn1)NC(=O)C(C)(C)NC(=O)[C@@H](N)Cc1c[nH]cn1)[C@@H](C)O)C(C)C)C(C)C)C(=O)N[C@@H](C)C(=O)N[C@@H](CC(N)=O)C(=O)N[C@H](C(N)=O)[C@@H](C)O) [Peptide 13]
8 | 698 | > 26800 | HSQGS[αMeF]TSDVSK(Ac)[Aib]LDSK([AEEA-AEEA-γGlu-C18 diacid])AAQD[αMeF]VQ[Aib]IAN-NH2 (N-terminus assumed; SMILES CC[C@H](C)[C@H](NC(=O)C(C)(C)NC(=O)[C@H](CCC(N)=O)NC(=O)[C@@H](NC(=O)[C@](C)(Cc1ccccc1)NC(=O)[C@H](CC(=O)O)NC(=O)[C@H](CCC(N)=O)NC(=O)[C@H](C)NC(=O)[C@H](C)NC(=O)[C@H](CCCCNC(=O)COCCOCCNC(=O)COCCOCCNC(=O)CC[C@H](NC(=O)CCCCCCCCCCCCCCCCC(=O)O)C(=O)O)NC(=O)[C@H](CO)NC(=O)[C@H](CC(=O)O)NC(=O)[C@H](CC(C)C)NC(=O)C(C)(C)NC(=O)[C@H](CCCCNC(C)=O)NC(=O)[C@H](CO)NC(=O)[C@@H](NC(=O)[C@H](CC(=O)O)NC(=O)[C@H](CO)NC(=O)[C@@H](NC(=O)[C@](C)(Cc1ccccc1)NC(=O)[C@H](CO)NC(=O)CNC(=O)[C@H](CCC(N)=O)NC(=O)[C@H](CO)NC(=O)[C@@H](N)Cc1c[nH]cn1)[C@@H](C)O)C(C)C)C(C)C)C(=O)N[C@@H](C)C(=O)N[C@@H](CC(N)=O)C(N)=O) [Peptide 109]
9 | 93.8 | 462 | H[Aib]HGS[αMeF]TSDVSK[αMeF]LDSK([AEEA-AEEA-γGlu-γGlu-C20 diacid])AARD[αMeF]VQ[Aib]IANT-NH2 (N-terminus assumed; SMILES CC[C@H](C)[C@H](NC(=O)C(C)(C)NC(=O)[C@H](CCC(N)=O)NC(=O)[C@@H](NC(=O)[C@](C)(Cc1ccccc1)NC(=O)[C@H](CC(=O)O)NC(=O)[C@H](CCCNC(=N)N)NC(=O)[C@H](C)NC(=O)[C@H](C)NC(=O)[C@H](CCCCNC(=O)COCCOCCNC(=O)COCCOCCNC(=O)CC[C@H](NC(=O)CC[C@H](NC(=O)CCCCCCCCCCCCCCCCCCC(=O)O)C(=O)O)C(=O)O)NC(=O)[C@H](CO)NC(=O)[C@H](CC(=O)O)NC(=O)[C@H](CC(C)C)NC(=O)[C@](C)(Cc1ccccc1)NC(=O)[C@H](CCCCN)NC(=O)[C@H](CO)NC(=O)[C@@H](NC(=O)[C@H](CC(=O)O)NC(=O)[C@H](CO)NC(=O)[C@@H](NC(=O)[C@](C)(Cc1ccccc1)NC(=O)[C@H](CO)NC(=O)CNC(=O)[C@H](Cc1c[nH]cn1)NC(=O)C(C)(C)NC(=O)[C@@H](N)Cc1c[nH]cn1)[C@@H](C)O)C(C)C)C(C)C)C(=O)N[C@@H](C)C(=O)N[C@@H](CC(N)=O)C(=O)N[C@H](C(N)=O)[C@@H](C)O) [Peptide 14]
10 | 1.06 | 30 | H[αMeS]QGS[αMeF]TSDVSKILDSK([PEG2′-PEG2′-γGlu-Stearoyl])AAQD[αMeF]VQ[Aib]IINT-NH2 [Peptide 133]
11 | 1.92 | 2.09 | HSQGS[αMeF]TSDVSKILDSKAAQD[αMeF]VQ[Aib]IAN-NH2 (not fully specified (residue 17)) [Peptide 111]
12 | 0.788 | 4.7 | H[Aib]QGS[αMeF]TSDVSKILDSK([(PEG)2-(PEG)2-γGlu-Palmitoyl])AAQD[αMeF]VQ[Aib]IINT-NH2 [Peptide 128]
13 | 0.511 | 17.8 | H[αMeS]QGS[αMeF]TSDVSKILDSK([PEG2′-PEG2′-γGlu-γGlu-Palmitoyl])AAQD[αMeF]VQ[Aib]IINT-NH2 [Peptide 131]
14 | 1.5 | 1.2 | HSQGS[αMeF]TSDVSKILDSK([(PEG)2-(PEG)2-γGlu-Palmitoyl])AAQD[αMeF]VQ[Aib]IINT-NH2 [Peptide 121]
15 | 1.81 | 2.62 | HSQGS[αMeF]TSDVSKILDSK([(PEG)2-(PEG)2-γGlu-Stearoyl])AAQD[αMeF]VQ[Aib]IINT-NH2 [Peptide 120]
16 | 0.949 | 34.3 | H[αMeS]QGS[αMeF]TSDVSKILDSK([PEG2′-PEG2′-γGlu-γGlu-Myristoyl])AAQD[αMeF]VQ[Aib]IINT-NH2 [Peptide 132]
17 | 1.39 | 1.7 | HSQGS[αMeF]TSDVSKILDSK([(PEG)2-(PEG)2-γGlu-γGlu-Myristoyl])AAQD[αMeF]VQ[Aib]IINT-NH2 [Peptide 119]
18 | 0.575 | 6.68 | H[Aib]QGS[αMeF]TSDVSKILDSK([(PEG)2-(PEG)2-γGlu-γGlu-Palmitoyl])AAQD[αMeF]VQ[Aib]IINT-NH2 [Peptide 125]
